According to patent US20250145729A1 (DENALI THERAPEUTICS, published 2025):
Changes are numbered by the printed parent chain. In names and notes the source's numbering stands. One block for each binder: values may come before it.

What was measured:
human CD98hc [1] = biological target: T1, human CD98hc (human, UniProt P08195 109-529); experiment: SPR (Biacore)
T1 construct: also called huCD98hc; CD98 heavy chain
T1 sequence: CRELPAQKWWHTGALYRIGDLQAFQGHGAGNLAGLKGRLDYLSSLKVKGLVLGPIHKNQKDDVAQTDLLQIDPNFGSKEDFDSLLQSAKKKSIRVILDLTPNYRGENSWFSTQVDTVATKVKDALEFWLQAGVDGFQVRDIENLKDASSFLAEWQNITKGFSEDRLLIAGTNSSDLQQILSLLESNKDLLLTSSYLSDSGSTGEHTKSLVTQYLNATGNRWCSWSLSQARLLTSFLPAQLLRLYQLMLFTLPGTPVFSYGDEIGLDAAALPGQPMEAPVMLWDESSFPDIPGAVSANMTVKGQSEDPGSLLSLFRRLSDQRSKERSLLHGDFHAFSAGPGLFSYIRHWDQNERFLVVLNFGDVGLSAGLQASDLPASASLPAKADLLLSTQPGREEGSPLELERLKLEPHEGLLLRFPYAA
Experimental: Variants that bound with measurable affinity from this round of engineering are shown in Table A12 and the corresponding human binding affinity by surface plasmon resonance (SPR) using a Biacore™ machine are shown in Table 9B. Cell binding of the clones was also tested in HeLa cells for huCD98hc binding and CHO cells as a negative control.

human CD98hc [2] = biological target: T2, human CD98hc (human, UniProt P08195 109-529); experiment: affinity as listed in study design table; method not given there
T2 construct: also called huCD98hc; CD98 heavy chain
T2 sequence: T1 sequence

human CD98hc [3] = biological target: T3, human CD98hc (human, UniProt P08195 109-529); experiment: SPR (Biacore); format not stated
T3 construct: The construct used on the Biacore is not described; also called CD98 heavy chain; 4F2 heavy chain
T3 sequence: T1 sequence
Experimental: A second round of affinity maturation using phage display was performed to increase the affinity of the LLB1 family to CD98hc (Table 11). The backbone of the library was the clone LLB1-3. Library LLB1-AM3 expands the library positions from the original clone using NHK or ARY. Library LLB1-AM4 expands the libraries and includes a mixture of residues that were found previously at those positions in the LLB1 family. The library was assembled using Kunkel mutagenesis and screened to human CD98hc. […] The format was anti-BACE1 Fabs having full effector function and in a bivalent format (i.e., no knob and hole mutations). Cell binding of the clones was also tested in HeLa cells for huCD98hc binding, CHO:cyCD98hc cells for cyno binding, and CHO cells as a negative control.

[4] = biological target: T4, circularly permuted cyno TfR apical domain (cynomolgus monkey); experiment: method not named for this table (Biacore elsewhere)
T4 construct: same design as the human construct; also called cyTfR Apical Domain; cynomolgus TfR apical domain
T4 chain: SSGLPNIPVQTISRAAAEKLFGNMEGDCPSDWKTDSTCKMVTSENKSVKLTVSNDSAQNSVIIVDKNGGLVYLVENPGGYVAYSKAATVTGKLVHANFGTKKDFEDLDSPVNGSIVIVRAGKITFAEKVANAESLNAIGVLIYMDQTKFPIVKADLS

[5] = biological target: T5, circularly permuted human TfR apical domain (human); experiment: as above
T5 construct: TfR residues 326-379 stand N-terminal to 194-296, loop 297-325 deleted; also called huTfR Apical Domain
T5 chain: T4 chain with K39R, N45S, S47N, G69R, D108Y, S109T, K153N, D155E

B5: Clone 36: LLB2-10-8 bivalent, non-binding Fabs, effector negative (Fc fusion)
chain: APEAAGGPSVFLFPPKPKDTLMISRTPEVTCVVVDVSHEDPEVKFNWYVDGVEVHNAKTKPREEQYNSTYRVVSVLTVLHQDWLNGKEYKCKVSNKALGAPIEKTISKAKGQPREPQVYTLPPSRDELTKNQVSLTCLVKGFYPSDIAVLWNSRFVLENNYKTTPPVLDSDGSFFLYSKLTVDKSRWQQGEIFACNVYHEALHNHYTFKNLALSPGK
Kd (human CD98hc [2]): 100 to 200 nM

B8: Clone 33: LLB2-10-8-d6 bivalent, non-binding Fabs (Fc fusion)
chain: B5 chain with A4L, A5L, G99P, E191N, I192V
notes: bivalent; effector positive
Kd (human CD98hc [2]): 550 nM

B10: Clone 38: LLB2-10-8-d6 bivalent, non-binding Fabs, effector negative (Fc fusion)
chain: B5 chain with E191N, I192V
Kd (human CD98hc [2]): 550 nM

B13: LLB1-3-16-2 (Fc fusion)
chain: APELLGGPSVFLFPPKPKDTLMISRTPEVTCVVVDVSHEDPEVKFNWYVDGVEVHNAKTKPREEQYNSTYRVVSVLTVLHQDWLNGKEYKCKVSNKALPAPIEKTISKAKGQPREPQVYTLPPSRDELTKNQVSLTCLVKGFYPSDIAVEWRTYKPYETNYKTTPPVLDSDGSFFLYSKLTVDKSRWQQGDIFVCDVMHEALHNHFTIKKLSLSPGK
Kd (human CD98hc [3]): 175 nM

B16: LLB1-3 D380E (Fc fusion)
chain: B13 chain with T153S, T159N, D191N, F206Y
Kd (human CD98hc [3]): 1000 nM

B22: 42.2.1.2 mono (Fc fusion)
chain 1: APEAAGGPSVFLFPPKPKDTLMISRTPEVTCVVVDVSHEDPEVKFNWYVDGVEVHNAKTKPREEQYNSTYRVVSVLTVLHQDWLNGKEYKCKVSNKALGAPIEKTISKAKGQPREPQVYTLPPSRDELTKNQVSLWCLVKGFYPSDIAVEWFYDDSKLTNYKTTPPVLDSDGSFFLYSKLTVDKSRWQQGNLFACEVMHEALHNHYTYKLLSLSPGK
chain 2: APEAAGGPSVFLFPPKPKDTLMISRTPEVTCVVVDVSHEDPEVKFNWYVDGVEVHNAKTKPREEQYNSTYRVVSVLTVLHQDWLNGKEYKCKVSNKALGAPIEKTISKAKGQPREPQVYTLPPSRDELTKNQVSLSCAVKGFYPSDIAVEWESNGQPENNYKTTPPVLDSDGSFFLVSKLTVDKSRWQQGNVFSCSVMHEALHNHYTQKSLSLSPGK
notes: knob+P329G+LALA with TfR site, hole+P329G+LALA without
Kd [4]: 7000 nM
Kd [5]: 284 nM

B23: 42.2.19 mono (Fc fusion)
chain 1: B22 chain 1 with Q189P, G190R, N191G, S212G, L213E
chain 2: B22 chain 2
notes: as for B22
Kd [4]: 1100 nM
Kd [5]: 79 nM

B24: 42.2.5.2 mono (Fc fusion)
chain 1: B22 chain 1 with Y153S, D155G, L158E, Q189P, G190R, N191G, S212G, L213E
chain 2: B22 chain 2
notes: as for B22
Kd [4]: 2000 nM
Kd [5]: 180 nM

B25: 42.2.1.20 mono (Fc fusion)
chain 1: B22 chain 1 with Y153A, D155A, L158Q, T159R
chain 2: B22 chain 2
notes: as for B22
Kd [4]: 7000 nM
Kd [5]: 440 nM

B26: 42.2.5.4 mono (Fc fusion)
chain 1: B22 chain 1 with Y153S, D155G, L158E, G190Q, N191G, S212G, L213Y
chain 2: B22 chain 2
notes: as for B22
Kd [4]: 6500 nM
Kd [5]: 400 nM

B27: 42.2.3.1H mono (Fc fusion)
chain 1: B22 chain 1 with D154G, D155N, S156A, L158E
chain 2: B22 chain 2
notes: as for B22
Kd [4]: 2000 nM
Kd [5]: 220 nM

B28: 42.2.3.1C mono (Fc fusion)
chain 1: B22 chain 1 with Y153G, D154T, D155N, S156K, L158E
chain 2: B22 chain 2
notes: as for B22
Kd [4]: 10000 nM
Kd [5]: 1000 nM

B29: 42.2.7.2 mono (Fc fusion)
chain 1: B22 chain 1 with Y153S, D155G, L158E, H203E, N204G
chain 2: B22 chain 2
notes: M428 kept here
Kd [4]: 10000 nM
Kd [5]: 162 nM

B30: 42.2.3.3 mono (Fc fusion)
chain 1: B22 chain 1 with Y153T, D155N, S156Y, L158E
chain 2: B22 chain 2
notes: as for B22
Kd [4]: 8000 nM
Kd [5]: 360 nM

B31: 42.2.3.5 mono (Fc fusion)
chain 1: B22 chain 1 with D154G, D155N, S156G, L158E
chain 2: B22 chain 2
notes: as for B22
Kd [4]: 1800 nM
Kd [5]: 260 nM

B32: 42.2.3.4 mono (Fc fusion)
chain 1: B22 chain 1 with Y153A, D154G, D155G, S156G, L158E
chain 2: B22 chain 2
notes: as for B22
Kd [4]: 4000 nM
Kd [5]: 181 nM

The remaining lines, values ahead:

Kd (human CD98hc [1]): 2600 nM
B1: LLB2-10-8.d24 (Fc fusion)
chain: B5 chain with A4L, A5L, G99P, F155Y, E191N, I192V
notes: Fc part only

Kd (human CD98hc [1]): 460 nM
B2: LLB2-10-8.d31 (Fc fusion)
chain: B5 chain with A4L, A5L, G99P, R154Q, F155Y, V156Q, E191N, I192V
notes: Fc part only

binding result (human CD98hc [1]): no binding
B3: LLB2-10-8.d27 (Fc fusion)
chain: B5 chain with A4L, A5L, G99P, V156Q, L157P, E191N, I192V
notes: Fc part only

Kd (human CD98hc [1]): 670 nM
B4: LLB2-10-8.d25 (Fc fusion)
chain: B5 chain with A4L, A5L, G99P, V156Q, E191N, I192V
notes: Fc part only

Kd (human CD98hc [1]): 4200 nM
B6: LLB2-10-8.d28 (Fc fusion)
chain: B5 chain with A4L, A5L, G99P, N152S, F155Y, E191N, I192V
notes: Fc part only

Kd (human CD98hc [1]): 1000 nM
B7: LLB2-10-8.d30 (Fc fusion)
chain: B5 chain with A4L, A5L, G99P, R154Q, V156E, E191N, I192V
notes: Fc part only

binding result (human CD98hc [1]): no binding
B9: LLB2-10-8.d26 (Fc fusion)
chain: B5 chain with A4L, A5L, G99P, L157P, E191N, I192V
notes: Fc part only

Kd (human CD98hc [1]): 1300 nM
B11: LLB2-10-8.d29 (Fc fusion)
chain: B5 chain with A4L, A5L, G99P, N152S, V156Q, E191N, I192V
notes: Fc part only

Kd (human CD98hc [1]): 3100 nM
B12: LLB2-10-8.d32 (Fc fusion)
chain: B5 chain with A4L, A5L, G99P, N152S, R154Q, V156E, E191N, I192V
notes: Fc part only

Kd (human CD98hc [3]): 160 nM
B14: LLB1-3-25-2 (Fc fusion)
chain: B13 chain
notes: a difference, if any, lies outside the printed positions

Kd (human CD98hc [3]): 330 nM
B15: LLB1-3-14-1 (Fc fusion)
chain: B13 chain with T153S, T159N, M198L, F206Y

Kd (human CD98hc [3]): 880 nM
B17: LLB1-3-4-1 (Fc fusion)
chain: B13 chain with T159N, D191N, F206Y

Kd (human CD98hc [3]): 32 nM
B18: LLB1-3-16 (Fc fusion)
chain: B13 chain with M198L
notes: also called Clone 1-3-16; LLB1-1-3-16

Kd (human CD98hc [3]): 42 nM
B19: LLB1-3-25-1 (Fc fusion)
chain: B13 chain with M198L
notes: as for B14

Kd (human CD98hc [3]): 1200 nM
B20: LLB1-3-31-2 (Fc fusion)
chain: B13 chain with K210S

Kd (human CD98hc [3]): 470 nM
B21: LLB1-3-10-1 (Fc fusion)
chain: B13 chain with T153S, T159N, D191N, M198L, F206Y
